The values below come from patent US20230039279.

Data set [1] relates to peptide (3), crosslinker based on substrate AVRWLLTA
Data set [2] concerns ibu-GPQGIWGQ-DRCG.
The subject of data set [3] is peptide (4).
In data set [4] the test system is non-cleavable scrambled peptide GCRR-KSSRGGPLK-RRCG.
Data set [5] concerns peptide (7).
Data set [6] deals with peptide (6).
Data set [7] deals with MMP-9 sensitive peptide (GPRSLSG-RRCG) linked ibuprofen.
Data set [8] deals with peptide (2).
The test system of data set [9] is cleavable peptide (1) GCRR-KGPRSLSGK-RRCG.
Data set [10] relates to MMP-9 peptide substrate M2, GRCR-GPRSLSG-RCRG.
For data set [11], the system named is peptide (5).

matrix-metalloprotease-9 (MMP-9), 83 kDa, Merck, sequence (chain, as listed by the source): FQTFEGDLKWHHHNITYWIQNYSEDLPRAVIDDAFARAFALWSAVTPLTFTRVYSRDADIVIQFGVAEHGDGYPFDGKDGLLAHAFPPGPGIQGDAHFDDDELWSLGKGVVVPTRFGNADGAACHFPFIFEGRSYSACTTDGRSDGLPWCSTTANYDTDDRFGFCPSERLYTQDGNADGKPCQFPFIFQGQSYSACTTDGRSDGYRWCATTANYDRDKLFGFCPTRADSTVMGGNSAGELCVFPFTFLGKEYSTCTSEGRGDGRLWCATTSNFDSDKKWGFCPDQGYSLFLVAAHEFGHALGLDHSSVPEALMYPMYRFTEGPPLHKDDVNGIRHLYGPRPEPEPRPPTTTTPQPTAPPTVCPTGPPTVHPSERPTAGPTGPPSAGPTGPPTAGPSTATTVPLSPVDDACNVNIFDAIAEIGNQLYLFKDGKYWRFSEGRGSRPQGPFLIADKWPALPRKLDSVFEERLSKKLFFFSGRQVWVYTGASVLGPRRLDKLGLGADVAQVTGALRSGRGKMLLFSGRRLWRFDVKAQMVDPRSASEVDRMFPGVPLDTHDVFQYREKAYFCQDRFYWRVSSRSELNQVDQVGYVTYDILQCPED

On to “matrix-metalloprotease-9 (MMP-9), 83 kDa, Merck”, for which the “cleavability of hybrid hydrogel (release of PLGA particles into the medium after 20 h with 3 µg/ml MMP-9)” value in [1] was “hydrogels formed with peptides (2), (3), and (6) were not cleaved upon exposure to MMP-9”; in data set [3], “hybrid hydrogels crosslinked with peptides (1), (4), (5) and (7) could be digested by MMP-9”; in data set [5] it was “hybrid hydrogels crosslinked with peptides (1), (4), (5) and (7) could be digested by MMP-9”; in data set [6], “hydrogels formed with peptides (2), (3), and (6) were not cleaved upon exposure to MMP-9”; in data set [8], “hydrogels formed with peptides (2), (3), and (6) were not cleaved upon exposure to MMP-9”; in [9] it was “hybrid hydrogels crosslinked with peptides (1), (4), (5) and (7) could be digested by MMP-9”. Besides, the “cleavability of hybrid hydrogel (release of PLGA particles into the medium after 20 h with 3 µg/ml MMP-9)” value in data set [11] was “hybrid hydrogels crosslinked with peptides (1), (4), (5) and (7) could be digested by MMP-9”. Also, in data set [2], the “LC-MS detection of the liberated fragment in the supernatant after 2 days of hydrogel exposure to MMP9 solution” value is given as “LC-MS analysis confirmed the presence of the liberated ibuprofen bearing fragment (ibu-GPQG, LC peak at elution time of 14.6 min, MS peak at m/z=546.20)”. In data set [4], the “cumulative drug release from scrGEL-iP after 4 hours with 3 µg/ml MMP-9” value is “only 40% was released from the hybrid hydrogel crosslinked by the scrambled peptide (scrGEL-iP) at the same condition”. Besides, in data set [7], the “specificity of protease-triggered ibuprofen liberation (FIG. 10B)” value is “the peptide sequence, GPRSLSGRRCG (SEQ ID NO: 20), as a spacer illustrated a good specificity toward MMP-9 compared to cathepsin B and human neutrophil elastase (HNE)”. Also, the “ultimate cumulative drug release at 48 hours from the dual-responsive conjugate hydrogel, MMP-9 alone (2 µg/ml)” value in data set [7] is listed as “the ultimate cumulative release achieved 71%”. Moreover, the “cumulative drug release from GEL-iP after 4 hours with 3 µg/ml MMP-9” value in data set [9] is “exposing GEL-iP to MMP-9 for 4 hours significantly boosted the cumulative drug release to 100% compared to only 25% in the absence of MMP-9”. In [10], the “degradation of H2-M2 combinational hydrogel and release of PLGA particles over 24 hours” value was “H2 and M2 peptide substrates were preferentially cleaved by HNE and MMP-9 proteases respectively”.
For cathepsin B, the “specificity of protease-triggered ibuprofen liberation (FIG. 10B)” value in data set [7] is “the peptide sequence, GPRSLSGRRCG (SEQ ID NO: 20), as a spacer illustrated a good specificity toward MMP-9 compared to cathepsin B and human neutrophil elastase (HNE)”.
